Results on one molecule are retold here after patent CN114149501A (TENCEL BIOMEDICINE CO LTD, dated 2022).

The target in assay [1] is T1, 人源重组C5蛋白 (Sino Biologica, Cat#13416-H18H) (human, UniProt P01031 19-1676).
T1 construct: also called 人源C5蛋白; 全长C5
Kind of assay: BLI (Octet), antibody on AHC sensor, C5 0.4688-30 nM; run no. 5. (In BLI a coated tip is dipped into the sample, and binding shifts an interference pattern.)

Assay [2] addresses T1, 人源重组C5蛋白 (Sino Biologica, …). Kind of assay: BLI (Octet), antibody on AHC sensor, C5 0.4688-30 nM; run no. 3.
For assay [3] the target is unchanged. The experiment in a line: BLI (Octet), antibody on AHC sensor, C5 0.4688-30 nM; run no. 1.
Assay [4] has the same target. Kind of assay: BLI (Octet), antibody on AHC sensor, C5 0.4688-30 nM; run no. 2.
The target is the same in assay [5]. The experiment in a line: BLI (Octet), antibody on AHC sensor, C5 0.4688-30 nM; run no. 4.

T1 sequence (P01031 19-1676 limits assumed): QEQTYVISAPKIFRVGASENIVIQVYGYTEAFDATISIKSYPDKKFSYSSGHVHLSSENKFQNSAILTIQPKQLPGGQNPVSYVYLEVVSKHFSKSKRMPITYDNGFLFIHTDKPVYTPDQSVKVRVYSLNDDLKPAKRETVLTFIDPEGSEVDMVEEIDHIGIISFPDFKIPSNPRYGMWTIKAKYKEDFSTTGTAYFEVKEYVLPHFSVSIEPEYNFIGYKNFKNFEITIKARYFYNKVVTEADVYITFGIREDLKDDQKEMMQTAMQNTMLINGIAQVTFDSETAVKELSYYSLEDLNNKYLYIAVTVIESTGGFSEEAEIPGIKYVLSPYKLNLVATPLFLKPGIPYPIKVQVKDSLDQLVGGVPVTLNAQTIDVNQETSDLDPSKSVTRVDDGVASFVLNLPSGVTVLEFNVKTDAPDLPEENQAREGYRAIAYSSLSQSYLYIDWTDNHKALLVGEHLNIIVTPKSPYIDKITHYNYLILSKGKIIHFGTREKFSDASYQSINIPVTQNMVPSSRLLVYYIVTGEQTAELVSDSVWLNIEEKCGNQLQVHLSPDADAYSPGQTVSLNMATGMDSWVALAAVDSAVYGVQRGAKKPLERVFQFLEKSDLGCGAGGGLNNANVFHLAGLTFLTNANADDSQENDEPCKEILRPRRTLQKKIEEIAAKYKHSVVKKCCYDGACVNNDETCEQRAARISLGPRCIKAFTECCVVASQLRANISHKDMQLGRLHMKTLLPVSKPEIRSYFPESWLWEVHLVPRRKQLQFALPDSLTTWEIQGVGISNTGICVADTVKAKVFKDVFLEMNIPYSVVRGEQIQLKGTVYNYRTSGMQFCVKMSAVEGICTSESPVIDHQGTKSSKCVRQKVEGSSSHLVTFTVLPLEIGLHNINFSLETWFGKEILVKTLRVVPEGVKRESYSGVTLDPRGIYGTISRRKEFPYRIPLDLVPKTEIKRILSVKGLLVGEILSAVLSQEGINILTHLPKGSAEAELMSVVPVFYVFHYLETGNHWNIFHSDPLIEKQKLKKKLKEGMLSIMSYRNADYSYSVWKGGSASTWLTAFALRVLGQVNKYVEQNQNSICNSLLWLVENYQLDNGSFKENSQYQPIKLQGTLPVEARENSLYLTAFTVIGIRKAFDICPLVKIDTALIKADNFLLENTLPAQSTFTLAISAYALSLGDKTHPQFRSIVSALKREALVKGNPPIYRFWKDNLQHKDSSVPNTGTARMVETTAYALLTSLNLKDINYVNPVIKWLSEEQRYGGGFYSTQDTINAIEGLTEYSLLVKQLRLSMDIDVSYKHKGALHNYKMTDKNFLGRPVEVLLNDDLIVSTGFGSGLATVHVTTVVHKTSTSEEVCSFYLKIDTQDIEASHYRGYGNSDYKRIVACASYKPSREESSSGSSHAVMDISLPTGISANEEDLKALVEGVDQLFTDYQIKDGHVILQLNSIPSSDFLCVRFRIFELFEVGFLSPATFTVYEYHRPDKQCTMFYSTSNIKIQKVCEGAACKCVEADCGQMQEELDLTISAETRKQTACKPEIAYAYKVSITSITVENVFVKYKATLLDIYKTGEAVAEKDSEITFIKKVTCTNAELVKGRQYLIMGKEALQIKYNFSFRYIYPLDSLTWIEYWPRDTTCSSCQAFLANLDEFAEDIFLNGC

B1: CR3#75/IgG4 (antibody, V domains shown)
VH: EVQLVQSGAEVKKPGATVKISCKVSGYTFTDYYTHWVQQAPGKGLEWMGLVDPEGGETIYAEKFQGRVTITADASTDTAYMELSSLRSEDTAVYYCATGSFLAAPDYWGQGTTVTVSS
VL: not shown
notes: also called 抗C5抗体CR3#75; S125(38#)-3
A word on the Kd: it is the equilibrium constant for the complex coming apart. Higher therefore signals weaker binding. In general, koff refers to the rate constant with which the complex falls apart. A lower koff goes with slow dissociation. Broadly, the kon is a measure of how fast the partners come together. In the case of B1, the Kd in assay [1] was determined as 0.72 nM; in assay [2] it was 0.616 nM; in assay [3], 0.366 nM; in assay [4], 0.614 nM; in assay [5], 0.722 nM. The koff in assay [1] turned out to be 0.000309 s⁻¹; in assay [2], 0.000279 s⁻¹; in assay [3], 0.000151 s⁻¹; in assay [4], 0.0003 s⁻¹; in assay [5] it was 0.000307 s⁻¹. Also, the kon in assay [1] worked out at 429000 M⁻¹ s⁻¹; in assay [2], 452000 M⁻¹ s⁻¹; in assay [3], 413000 M⁻¹ s⁻¹; in assay [4], 488000 M⁻¹ s⁻¹; in assay [5] it was 425000 M⁻¹ s⁻¹.
